Reference: publication PMC2234237 (The Journal of Cell Biology, 2008)

How the values were obtained:
[1] = molecular target: Hsp82-MC (residues 260-709) (S. cerevisiae, UniProt P02829 260-709); assay: pull-down
[2] = molecular target: T1, Pih1/Nop17, full length, untagged, recombinant (monomeric species) (S. cerevisiae, UniProt P38768 1-344); assay: pull-down
T1 sequence: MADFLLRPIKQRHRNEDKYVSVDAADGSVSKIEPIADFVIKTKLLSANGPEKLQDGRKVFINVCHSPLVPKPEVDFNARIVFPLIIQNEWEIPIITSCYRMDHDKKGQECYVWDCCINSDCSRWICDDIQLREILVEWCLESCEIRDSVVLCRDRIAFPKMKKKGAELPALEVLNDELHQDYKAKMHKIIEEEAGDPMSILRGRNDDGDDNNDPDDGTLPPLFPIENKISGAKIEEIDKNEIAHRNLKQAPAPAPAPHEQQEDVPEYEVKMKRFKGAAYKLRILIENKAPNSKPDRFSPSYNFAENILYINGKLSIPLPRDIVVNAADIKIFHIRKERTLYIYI

Rvb2, recombinant = Rvb2, recombinant (S. cerevisiae, UniProt Q12464 1-471); assay: SEC
Sequence of Rvb2, recombinant (Q12464 whole entry): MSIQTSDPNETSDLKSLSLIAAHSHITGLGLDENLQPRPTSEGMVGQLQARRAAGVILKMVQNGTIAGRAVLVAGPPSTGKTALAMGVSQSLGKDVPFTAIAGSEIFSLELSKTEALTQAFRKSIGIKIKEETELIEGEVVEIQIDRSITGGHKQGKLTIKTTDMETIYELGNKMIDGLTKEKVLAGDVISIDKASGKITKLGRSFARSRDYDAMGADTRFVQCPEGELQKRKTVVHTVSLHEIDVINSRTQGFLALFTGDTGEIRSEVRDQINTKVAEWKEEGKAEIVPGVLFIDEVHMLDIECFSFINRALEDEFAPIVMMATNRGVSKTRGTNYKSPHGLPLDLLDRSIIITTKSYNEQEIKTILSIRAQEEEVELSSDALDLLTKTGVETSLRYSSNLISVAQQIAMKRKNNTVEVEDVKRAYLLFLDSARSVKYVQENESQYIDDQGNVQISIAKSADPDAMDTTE

Sequence of Hsp82-MC (residues 260-709) (P02829 260-709): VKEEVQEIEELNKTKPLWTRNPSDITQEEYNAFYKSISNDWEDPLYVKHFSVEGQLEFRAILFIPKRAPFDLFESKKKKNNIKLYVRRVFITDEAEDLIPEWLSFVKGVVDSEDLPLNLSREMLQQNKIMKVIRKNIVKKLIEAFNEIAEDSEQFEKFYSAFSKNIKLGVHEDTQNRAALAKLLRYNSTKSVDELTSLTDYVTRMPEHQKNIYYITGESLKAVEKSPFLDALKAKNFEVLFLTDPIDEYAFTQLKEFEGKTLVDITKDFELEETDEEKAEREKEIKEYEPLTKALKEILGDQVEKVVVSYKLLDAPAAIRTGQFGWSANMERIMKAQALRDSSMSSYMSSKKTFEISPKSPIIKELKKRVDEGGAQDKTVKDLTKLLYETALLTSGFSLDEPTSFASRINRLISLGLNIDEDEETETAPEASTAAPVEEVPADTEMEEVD

Binder | binding result [1] | binding result [2] | binding result (Rvb2, recombinant)
Tah1, full length, recombinant (natural protein) MSQFEKQKEQGNSLFKQGLYREAVHCYDQLITAQPQNPVGYSNKAMALIKLGEYTQAIQMCQQGLRYTSTAEHVAIRSKLQYRLELAQGAVGSVQIPVVEVDELPEGYDRS | binds | binds | –
Sti1 TPR2a domain (residues 260-386) (domain or fragment) IEADKEKAEGNKFYKARQFDEAIEHYNKAWELHKDITYLNNRAAAEYEKGEYETAISTLNDAVEQGREMRADYKVISKSFARIGNAYHKLGDLKKTIEYYQKSLTEHRTADILTKLRNAEKELKKAE | binds | – | –
Rvb1, recombinant (natural protein) MVAISEVKENPGVNSSNSGAVTRTAAHTHIKGLGLDESGVAKRVEGGFVGQIEAREACGVIVDLIKAKKMSGRAILLAGGPSTGKTALALAISQELGPKVPFCPLVGSELYSVEVKKTETLMENFRRAIGLRIKETKEVYEGEVTELTPEDAENPLGGYGKTISHVIVGLKSAKGTKTLRLDPTIYESIQREKVSIGDVIYIEANTGAVKRVGRSDAYATEFDLETEEYVPLPKGEVHKKKEIVQDVTLHDLDVANARPQGGQDVISMMGQLLKPKKTEITEKLRQEVNKVVAKYIDQGVAELIPGVLFIDEVNMLDIEIFTYLNKALESNIAPVVVLASNRGMTTVRGTEDVISPHGVPPDLIDRLLIVRTLPYDKDEIRTIIERRATVERLQVESSALDLLATMGTETSLRYALQLLAPCGILAQTSNRKEIVVNDVNEAKLLFLDAKRSTKILETSANYL | – | – | binds
